Test results reported in US20170247476A1 (Amgen, published 2017).

Key:
HER2 = HER2 (human, UniProt P04626 23-1255); assay: cell-based or functional assay
human CD3ε = biological target: T1, human CD3ε (human, UniProt P07766 22-207); assay: FACS on T cells
T1 construct: On T cells CD3ε is part of the TCR-CD3 complex; also called T cells

binding result (human CD3ε) | Binder | other results
– | CD3ε(1-27)-MMP-2csV1-aCD3-aHER2-Xbody (bispecific antibody) chain 1: not shown chain 2: QDGNEEMGGITQTPYKVSISGTTVILTGGGGSGGGGSGGGGSGPLGIAGQEVQLVESGGGLVQPGGSLKLSCAASGFTFNSYAMNWVRQAPGKGLEWVARIRSKYNNYATYYADSVKGRFTISRDDSKNTAYLQMNNLKTEDTAVYYCVRHGNFGNSYVSWWAYWGQGTLVTVSSGGGGSGGGGSELVMTQTPSSLSASLGDRVTISCRASQDISNYLNWYQQKPDGTVKLLIYYTSRLHSGVPSRFSGSGSGTDYSLTISNLEQEDIATYFCQQGNTLPLTFGAGTKLEIKASTKGPSVFPLAPCSRSTSESTAALGCLVKDYFPEPVTVSWNSGALTSGVHTFPAVLQSSGLYSLSSVVTVPSSNFGTQTYTCNVDHKPSNTKVDKTVGGGGSAAAEPKSSDKTHTCPPCPAPEAAGGPSVFLFPPKPKDTLMISRTPEVTCVVVDVSHEDPEVKFNWYVDGVEVHNAKTKPREEQYNSTYRVVSVLTVLHQDWLNGKEYKCKVSNKALPAPIEKTISKAKGQPREPQVYTLPPSREEMTKNQVSLTCLVKGFYPSDIAVEWESNGQPENNYDTTPPVLDSDGSFFLYSDLTVDKSRWQQGNVFSCSVMHEALHNHYTQKSLSLSPGK | EC50 Cytolysis (ng/mL), -MMP2; TDCC of SKOV-3 cells with pan T cells (HER2): 4.41 ng/mL
no binding | CD3ε(1-27)-aCD3-aHER2-BiFc (bispecific antibody, Non-cleavable linker between the CD3ε(1-27) fragment and the Fc) chain 1: not shown chain 2: QDGNEEMGGITQTPYKVSISGTTVILTGGGGSGGGGSGGGGSAAAEPKSSDKTHTCPPCPAPEAAGGPSVFLFPPKPKDTLMISRTPEVTCVVVDVSHEDPEVKFNWYVDGVEVHNAKTKPREEQYNSTYRVVSVLTVLHQDWLNGKEYKCKVSNKALPAPIEKTISKAKGQPREPQVYTLPPSREEMTKNQVSLTCLVKGFYPSDIAVEWESNGQPENNYDTTPPVLDSDGSFFLYSDLTVDKSRWQQGNVFSCSVMHEALHNHYTQKSLSLSPGK | –
no binding | CD3ε(1-27)-MMP-2cs-aCD3-aHER2-BiFc (bispecific antibody, Tested undigested, with the MMP2 cleavage site intact; also called CD3ε(1-27)-MMP-cs-aCD3-aHER2-BiFc) chain 1: not shown chain 2: QDGNEEMGGITQTPYKVSISGTTVILTGPLGIAGQAAAEPKSSDKTHTCPPCPAPEAAGGPSVFLFPPKPKDTLMISRTPEVTCVVVDVSHEDPEVKFNWYVDGVEVHNAKTKPREEQYNSTYRVVSVLTVLHQDWLNGKEYKCKVSNKALPAPIEKTISKAKGQPREPQVYTLPPSREEMTKNQVSLTCLVKGFYPSDIAVEWESNGQPENNYDTTPPVLDSDGSFFLYSDLTVDKSRWQQGNVFSCSVMHEALHNHYTQKSLSLSPGK | –
– | CD3ε(1-27)-MMP-2csV1-aCD3-aHER2-Xbody, digested with MMP-2 (bispecific antibody) chain 1: not shown chain 2: IAGQEVQLVESGGGLVQPGGSLKLSCAASGFTFNSYAMNWVRQAPGKGLEWVARIRSKYNNYATYYADSVKGRFTISRDDSKNTAYLQMNNLKTEDTAVYYCVRHGNFGNSYVSWWAYWGQGTLVTVSSGGGGSGGGGSELVMTQTPSSLSASLGDRVTISCRASQDISNYLNWYQQKPDGTVKLLIYYTSRLHSGVPSRFSGSGSGTDYSLTISNLEQEDIATYFCQQGNTLPLTFGAGTKLEIKASTKGPSVFPLAPCSRSTSESTAALGCLVKDYFPEPVTVSWNSGALTSGVHTFPAVLQSSGLYSLSSVVTVPSSNFGTQTYTCNVDHKPSNTKVDKTVGGGGSAAAEPKSSDKTHTCPPCPAPEAAGGPSVFLFPPKPKDTLMISRTPEVTCVVVDVSHEDPEVKFNWYVDGVEVHNAKTKPREEQYNSTYRVVSVLTVLHQDWLNGKEYKCKVSNKALPAPIEKTISKAKGQPREPQVYTLPPSREEMTKNQVSLTCLVKGFYPSDIAVEWESNGQPENNYDTTPPVLDSDGSFFLYSDLTVDKSRWQQGNVFSCSVMHEALHNHYTQKSLSLSPGK | EC50 Cytolysis (ng/mL), +MMP2; TDCC of SKOV-3 cells with pan T cells (HER2): 0.347 ng/mL
